# Results reported in the RNAGym collection of RNA variant scans (doi:10.1101/gr.219683.116).
# B1: mRNA-splicing (parent)
# chain: AGUUGCUGCUGGGAGCUCCAGCACAGUGAAAUGGACAGAAGGGCAGAGCAA
# Variants of: B1
# Assay: exon inclusion enrichment index; higher = more inclusion; WT1 exon 5 minigene, HEK293
row,Variant,exon inclusion enrichment index
1,C6A U7C C9A U10C G33A,0.648
2,C6A U7C C9A U10C G33A G34A,0.865
3,C6A U7C C9A U10C G33A G34C,1.06
4,C6A U7C C9A U10C G33A G34U,0.964
5,C6A U7C C9A U10C G33C,3.45
6,C6A U7C C9A U10C G33C G34A,2.31
7,C6A U7C C9A U10C G33C G34C,2.01
8,C6A U7C C9A U10C G33C G34U,2.34
9,C6A U7C C9A U10C G33U,1.97
10,C6A U7C C9A U10C G33U G34A,0.907
11,C6A U7C C9A U10C G33U G34C,1.4
12,C6A U7C C9A U10C G33U G34U,1.05
13,C6A U7C C9A U10C G34A,2.27
14,C6A U7C C9A U10C G34A A35C,2.52
15,C6A U7C C9A U10C G34A A35G,2.05
16,C6A U7C C9A U10C G34A A35U,1.68
17,C6A U7C C9A U10C G34C,1.79
18,C6A U7C C9A U10C G34C A35C,0.445
19,C6A U7C C9A U10C G34C A35G,2.67
20,C6A U7C C9A U10C G34C A35U,0.98
21,C6A U7C C9A U10C G34U,1.52
22,C6A U7C C9A U10C G34U A35C,1.5
23,C6A U7C C9A U10C G34U A35G,1.29
24,C6A U7C C9A U10C G34U A35U,1.33

row,Variant,exon inclusion enrichment index
1,C6A U7C C9A U10C G38A,2.2
2,C6A U7C C9A U10C G38A A39C,2.55
3,C6A U7C C9A U10C G38A A39G,2.68
4,C6A U7C C9A U10C G38A A39U,0.332
5,C6A U7C C9A U10C G38C,2.15
6,C6A U7C C9A U10C G38C A39C,3
7,C6A U7C C9A U10C G38C A39G,2.65
8,C6A U7C C9A U10C G38C A39U,0.489
9,C6A U7C C9A U10C G38U,1.44
10,C6A U7C C9A U10C G38U A39C,2.79
11,C6A U7C C9A U10C G38U A39G,1.89
12,C6A U7C C9A U10C G38U A39U,0.32
13,C6A U7C C9A U10C G41A,2.41
14,C6A U7C C9A U10C G41A G42A,2.59
15,C6A U7C C9A U10C G41A G42C,3.64
16,C6A U7C C9A U10C G41A G42U,2.71
17,C6A U7C C9A U10C G41C,3.93
18,C6A U7C C9A U10C G41C G42A,2.74
19,C6A U7C C9A U10C G41C G42C,3.48
20,C6A U7C C9A U10C G41C G42U,3.52
21,C6A U7C C9A U10C G41U,3.1
22,C6A U7C C9A U10C G41U G42A,1.6
23,C6A U7C C9A U10C G41U G42C,3.58
24,C6A U7C C9A U10C G41U G42U,2.65

row,Variant,exon inclusion enrichment index
1,C6A U7C C9A U10C G42A,4.25
2,C6A U7C C9A U10C G42A G43A,4.69
3,C6A U7C C9A U10C G42A G43C,4.49
4,C6A U7C C9A U10C G42A G43U,4.39
5,C6A U7C C9A U10C G42C,4.02
6,C6A U7C C9A U10C G42C G43A,3.52
7,C6A U7C C9A U10C G42C G43C,3.4
8,C6A U7C C9A U10C G42C G43U,3.6
9,C6A U7C C9A U10C G42U,3.3
10,C6A U7C C9A U10C G42U G43A,3.84
11,C6A U7C C9A U10C G42U G43C,2.05
12,C6A U7C C9A U10C G42U G43U,3.65
13,C6A U7C C9A U10C G43A,4.63
14,C6A U7C C9A U10C G43A C44A,4.49
15,C6A U7C C9A U10C G43A C44G,5.09
16,C6A U7C C9A U10C G43A C44U,3.22
17,C6A U7C C9A U10C G43C,3.07
18,C6A U7C C9A U10C G43C C44A,3.8
19,C6A U7C C9A U10C G43C C44G,4.77
20,C6A U7C C9A U10C G43C C44U,2.49
21,C6A U7C C9A U10C G43U,2.81
22,C6A U7C C9A U10C G43U C44A,0.0402
23,C6A U7C C9A U10C G43U C44G,0.567
24,C6A U7C C9A U10C G43U C44U,1.21

row,Variant,exon inclusion enrichment index
1,C6A U7C C9A U10C G46A,2.98
2,C6A U7C C9A U10C G46A A47C,3.66
3,C6A U7C C9A U10C G46A A47G,1.33
4,C6A U7C C9A U10C G46A A47U,2.94
5,C6A U7C C9A U10C G46C,2.33
6,C6A U7C C9A U10C G46C A47C,2.51
7,C6A U7C C9A U10C G46C A47G,3.46
8,C6A U7C C9A U10C G46C A47U,2.64
9,C6A U7C C9A U10C G46U,2.22
10,C6A U7C C9A U10C G46U A47C,3.45
11,C6A U7C C9A U10C G46U A47G,2.8
12,C6A U7C C9A U10C G46U A47U,3.03
13,C6A U7C C9A U10C G48A,3.5
14,C6A U7C C9A U10C G48C,2.99
15,C6A U7C C9A U10C G48U,3.83
16,C6A U7C C9A U10C U17A,3.36
17,C6A U7C C9A U10C U17A C18A,3.1
18,C6A U7C C9A U10C U17A C18G,2.68
19,C6A U7C C9A U10C U17A C18U,2.9
20,C6A U7C C9A U10C U17C,3.11
21,C6A U7C C9A U10C U17C C18A,3.17
22,C6A U7C C9A U10C U17C C18G,3.74
23,C6A U7C C9A U10C U17C C18U,3.39
24,C6A U7C C9A U10C U17G,2.68

row,Variant,exon inclusion enrichment index
1,C6A U7C C9A U10C U17G C18A,3.29
2,C6A U7C C9A U10C U17G C18G,2.57
3,C6A U7C C9A U10C U17G C18U,1.64
4,C6A U7C C9A U10C U27A,3.6
5,C6A U7C C9A U10C U27A G28A,2.98
6,C6A U7C C9A U10C U27A G28C,3.18
7,C6A U7C C9A U10C U27A G28U,2.04
8,C6A U7C C9A U10C U27C,5.2
9,C6A U7C C9A U10C U27C G28A,3.15
10,C6A U7C C9A U10C U27C G28C,3.85
11,C6A U7C C9A U10C U27C G28U,2.92
12,C6A U7C C9A U10C U27G,2.01
13,C6A U7C C9A U10C U27G G28A,3.19
14,C6A U7C C9A U10C U27G G28C,2.4
15,C6A U7C C9A U10C U27G G28U,0.0137
16,C6A U7C C9A U10C U32A,3.06
17,C6A U7C C9A U10C U32A G33A,2.07
18,C6A U7C C9A U10C U32A G33C,3.5
19,C6A U7C C9A U10C U32A G33U,3.1
20,C6A U7C C9A U10C U32C,4.44
21,C6A U7C C9A U10C U32C G33A,2.3
22,C6A U7C C9A U10C U32C G33C,4
23,C6A U7C C9A U10C U32C G33U,2.94
24,C6A U7C C9A U10C U32G,0.701

row,Variant,exon inclusion enrichment index
1,C6A U7C C9A U10C U32G G33A,1.61
2,C6A U7C C9A U10C U32G G33C,3.23
3,C6A U7C C9A U10C U32G G33U,1.91
4,C6A U7C C9A U10G,0.756
5,C6A U7C C9A U10G G11A,2.06
6,C6A U7C C9A U10G G11C,2.72
7,C6A U7C C9A U10G G11U,2.09
8,C6A U7C C9G,1.05
9,C6A U7C C9G U10A,1.39
10,C6A U7C C9G U10C,2.55
11,C6A U7C C9G U10G,0.132
12,C6A U7C C9U,1.42
13,C6A U7C C9U U10A,0.0495
14,C6A U7C C9U U10C,2.52
15,C6A U7C C9U U10G,0.298
16,C6A U7C G8A C9A U10A,0.265
17,C6A U7C G8A C9A U10C,2.62
18,C6A U7C G8A C9G U10C,1.39
19,C6A U7C G8A C9U U10C,2.34
20,C6A U7C G8A U10A,0.127
21,C6A U7C G8A U10C,2.3
22,C6A U7C G8C C9A U10A,0.587
23,C6A U7C G8C C9A U10C,2.29
24,C6A U7C G8C C9G U10C,2.26

row,Variant,exon inclusion enrichment index
1,C6A U7C G8C C9U U10C,2.28
2,C6A U7C G8C U10C,2.08
3,C6A U7C G8U C9A U10A,0.176
4,C6A U7C G8U C9A U10C,2.22
5,C6A U7C G8U C9G U10C,1.91
6,C6A U7C G8U C9U U10C,2.41
7,C6A U7C G8U U10C,2.98
8,C6A U7C U10A,0.41
9,C6A U7C U10C,3.14
10,C6A U7C U10G,1.66
11,C6A U7G,0.00565
12,C6A U7G C9A,0.123
13,C6A U7G C9A U10A,0.108
14,C6A U7G C9A U10C,0.53
15,C6A U7G G8A C9A U10A,0.0362
16,C6A U7G G8A C9A U10C,0.734
17,C6A U7G G8C C9A U10A,0.124
18,C6A U7G G8C C9A U10C,0.907
19,C6A U7G G8U C9A U10A,0.0118
20,C6A U7G G8U C9A U10C,0.407
21,C6G,0.0263
22,C6G C9A U10A,0.229
23,C6G C9A U10C,1.01
